The source of these data is patent US20230192820A1 (published 2023).

In this assay the target is Wild type. The experiment in a line: ELISA.

B1: Mab362 (antibody, V domains shown)
VH: QVQLVESGGGVVQPGRSLRLSCAASGFSFSSYGMHWVRQAPGKGLEWVAVIWYDGSDKYYADSVKGRFTISRDNSKNTLYLQLNSLRAEDTAIYYCARERYFDWIFDFWGQGTLVTVSS
VL: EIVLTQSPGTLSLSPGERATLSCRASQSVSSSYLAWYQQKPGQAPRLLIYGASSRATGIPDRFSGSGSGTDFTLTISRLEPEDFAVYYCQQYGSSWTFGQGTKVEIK
B1 had an EC50 of 0.64 µg/mL.

Broadly, the EC50 is the concentration needed to bring the measured effect to its halfway point.
